Source: the DeepSol protein solubility set

assay: soluble on expression in E. coli; label from the status in PepcDB or PDB records

| Sequence | soluble on expression in E. coli |
| --- | --- |
| AIATLLDWMNVCSVEIPKRIIAKHFSACQHTNQEVFSLDDSLAGLDECLHCEDSQQNHRKVSPGQTLRIVMIGKTGVGKSAVGNTILNREVFESKPSANSITQSCRKASVYDTREIYVIDTPGILDTSKEKDIIKREIVKCIKVSAPGPHAFLLVIQIGRFTAEEQRAVQALQELFGEDASNYMIVLFTHGDLLKGQTIDQYVREGHIELRRVIQSCGGRYAVFNNTMKDRTQVKTLIDKIDQMVAVNGGECYTQEMFREAEEKIRQQKEKREIAELQEYQFSFLGILENRVTLFQRILLEGYREQFAIESGIYK | soluble |
| MGSDKIHHHHHHMAAFTTTDGLRLFYEDEGTGQPLLCLAGLTRCSRDFEFLRPHVTDLRLIRLDYRGRGQSDYDPDYRNYNVLREAHDVIELLDHLGLDRVTVLGTSRGGMIAMALAASHPDRLAGVILNDVGPVIEPAGIARIMDYVGKKPVSKTHDQAALALKQAMEPQFPGVPLSVWRKQAEIQYAASDQGLALRYDDGLHKALLDQAATGAIPDLWLFFEALRDIPTAVLRGANSDILGAGTVAEMHRRHPGLISAEVPDRGHVPFLDEPQSLDLIRRILETA | not soluble |
| MRRAGLGEGVPPGNYGNYGYANSGYSACEEENERLTESLRSKVTAIKSLSIEIGHEVKTQNKLLAEMDSQFDSTTGFLGLCPM | soluble |
| MTTLSHVEALCALEQPYRADAECDRLFDAAMRELVDYHCEHSPGYRRWLEQNGFTPERLAGLSDWSQLPPIFANYFKRRLLLSTSGEDALELTSSGTTGQKSRMRYDERSIGAAQRMVDRIFDHYGWNTPQQPCNYLLLSYEPAGAITLGTAYTDQFLCKYAPVKRAVYALRHNGKGNEFDPFGAIRALQEFAAEGLPVRIFGFPAFLWFALERMRDMGLPPLALHPESLVFLGGGWKTHADQAIPKAELYRRLGEQLGLPDARCRDGYGSVEHPVPYVECTNHRFHVPSWARAWARDTATLARLPYGEAGFLHLVSPYITSSPAHSMLLSDLAVLQLAERCGCGLATDWFELLGRAGTSKSRSCAMAASELIKESLEHHHHHH | soluble |
| MSNEMYYVQASDPAILEKGECGGAVTALFKYLLDKGIVDGVLALKKGVDVYDAIPTFVTSSEDLLSTAGSLHCAPTMWGGIIKEYLQDAKIAVPVKPCDMRAIVELAKRAQINLDNVYMIGLNCGGTVPPKTAMEMIKLFYEVDPKDVVKEEIDKGKFIIVMKDGSHKEVKMHDLEDNGYGRRVNCQRCDEKIPRKADIAAGNWGVIGEDAGKYTFMEVCTEKGKQLLKDAEKDGYVKTKAPNPKGLEIRAKVESSMLKMGEDYKNKWLEEKYPTIEEWNRQWNKCIKCYGCRDVCPVCFCRECALTADYVDTGSIPPDPIMFQGVRMSHMAFSCVNCGQCEDVCPMEIPVARIFHKIQEKTRKELGYRPGVDDEAPPALGGSCPTQLEHHHHHH | not soluble |
| MDERWMVMKITIVFENHAGYRKGLIGYHGFSALVEANGYRVLVDTGTDGKVLLNNMSELGISPDDIDALFITHGHYDHTGGLRELLSARTEALDIYAHPGIFKRRLALKPKKREIGIPFTREELEELGGKFILSDKSKEILPGFISSGEIERITWDRAVGYFPDGSKDPVRDDMALIVEEGSKSVVITGCGHSGIINIAIHSKKLTNNRIAALIGGFHLKGIERSLLDEAVKKLRELEIEKLYPGHCTGIEEFAYLWSKFGNVEGIHVGKEIKILEHHHHHH | soluble |
| CPECDEPLHYIRDAVSEKLEYIPAHFVVNRYVRPQYSCPCCQKVFSGEMPAHILPKSAVEPSVIAQVIINKYGDHLPLYRQQQVFARSDVGLPVSSMADMVGAAGAALSPLAALLHRELINRPVVHADETTLKILNTKKGGKSCSGYLWAYVSGERTGPSVVCFDCRTGRSHEYPENWLQGWGGTLVVDGHKAYRTLANKV | not soluble |
| SLMKITRIEAIPYAIPYSRPLKFASGEVSTAEHVLVRIHTDAGICGVADTPPRPYTYGETQDSIVSVVTKVFAPQLIGMDPMDRSKVQQLLGRTVNNPTAKGALDIALWDVIGISLGTPVHKLLGGFSDSMRVSHMLGFKAAAELLEEALRFRETYGIDTFKLKVGRRPLSLDVEACHVLREGLGADTEIYLDANRGWTANEAMEVLRRTEGLGLSMLEEPCDAAEAMGRRRLVQHSSIPIVGDESVPNLGDVSRELLSGGSNAICIKTARSGFTEAQQILGLCEGLGVDVTMGNQIDTQVGSLATVTFGAAFEASSRRAGELSNYLDMTDDLLAEPLEITDGAIRVRKAPGVGAAIDADKLQKY | not soluble |
| MLPLPTWTLSDVDAILVLSFGGPEGQQDVIPFLENVTRGRGIPRERLEEVAVHYRHFGGISPLNALNREIIGNIIEVLSSRGLEIPVYFGNRNWHPFVNDTAEKMVRDGVRNVAVFATSAWGGYSGCRQYDEDIVRMNHHLEEKELPTLNCLKLRQFFDHPLFIEEMSSVVFQAARELGISALDELQLHQKVVFTAHSIPEVANENSGRKEDGPLYSRQVYEAASLVAKHLGISQERYDVVWQSASGNGQIPWLEPDILDYAKCQHDEGVSELVVAPIGFISDHMEVVWDLDHELQDLASDLGMSISRAATVGHTDSFATMIVELVEESLGVKPHQNLGTVPSKGCSFNGEPCEVNCCKPVQRPHSAKA | not soluble |
| MQDGMYQRFLRQHVHPEETGGSDRYCNLMMQRRKMTLYHCKRFNTFIHEDIWNIRSICSTTNIQCKNGKMNCHEGVVKVTDCRDTGSSRAPNCRYRAIASTRRVVIACEGNPQVPVHFDG | soluble |
| GPGSMCKLHVKRTAAHSSCAVTKDNFNAIGYGARLVFKICNIADCIVRNGESNRVLSVSSTIMSMSVIHGGITIQTIPVHCVFNYELCNPLRMAHVDRQKCAPGYVVSDPLPEINEYSDADVVIKNLLSAHSLHDAHEKNAFTALVRAMISDRDMQKLGGNTEADQYALIGVFLILYGPGSIKIANQENELVPKKHVDYCGKKQIMNLTRKNHDT | not soluble |
| GASMDAIKKKMQMLKLDKENALDRAEQAEADKDFYFGKLRNIELICQENEGENDPVLQRIVDILYATDEGFVIPD | soluble |
| MAHHHHHHMPVKRSNKVHKFHEGTGDDNMPVVSMFVVKDGDEPFTRIDVELFVNKVPKACDLFLQTCAFPTVGDKRNAKRGSYKGCRFVRLTKEALQVADGSGPRAVPLSELEAEIGRVNHGVGIASLCRSSTSFDESFFFCLTDNRLELDSLDKRHVAFGRVTGGLDALMGLRDALVPYVQEGCVIVGSPYAVSEVVPKAKQ | soluble |
| MSDRATTTASLTFESLYGTHHGWLKSWLTRKLQSAFDADDIAQDTFLRVMVSETLSTIRDPRSFLCTIAKRVMVDLFRRNALEKAYLEMLALMPEGGAPSPEERESQLETLQLLDSMLDGLNGKTREAFLLSQLDGLTYSEIAHKLGVSISSVKKYVAKAVEHCLLFRLEYGL | soluble |
| SLPLQQYRDFIDNQMLLLVAQRDRASRIFPHLYLGSEWNAANLEELQRNRVTHILNMAREIDNFYPERFTYHNVRLWDEESAQLLPHWKETHRFIEAARAQGTHVLVHCKMGVSRSAATVLAYAMKQYECSLEQALRHVQELRPIARPNPGFLRQLQIYQGILTART | not soluble |
| MILEKAREILEEHQLCNHCLGRLFGKLGKGTNEERGRAIRLLLSMETGKEYKEPEKCELCGGVFNNLDKFAELCIKAAEGIEFETFWVGSRFPEEIEKKEEEIWRKFRVVSGEKITKEFNRELGKVIAVRYGKTPVKERPDVVFIVEPFSEKVELQVNPIYVAGRYRKLIRGIPQTPAPGFKESIATIICRAFKKHFHGKCIFKGAGREDVDVRMLGNGRPFVVEIKRPRKRKVNLKDIEEEINQSGKVEVLNLRFITPEEAERILTTRHRKVYEAIVYVKDGITKEEVEKVVKSLKNAEIKQRTPRRVLNSRADLVRVRKVYDVKGELIDDKHFKLRLVTDGGLYIKELISGDRGRTTPSVSEILGKEAWCEILDVLEVLDDVEGDNLEHHHHHH | not soluble |
| MGSDKIHHHHHHMERFCCVNQINYIQMNPLEAKFKTSALRSWKTDQADAHKLACLGPTLKQTDNLPIHELIFFELRERVRFHLEIENEQNRLKFQILELLHQTFPGLERLFSSRYSIIALNIAEIFTHPDMVLDIDKEVLITHIFNSTDKGMSMDKATKYALQLRVIAQESYPNVDRHSFLVEKLRLLIQQLKQSIHHPKQLDDAMIQLAQQLDYFENIHSIPGIGKLSTAMIIGEIGDIKRFKSNKQLNAFVGIDIKRYQSGHTHCRDTINKRGNKKARKLLFWVIMNIIRGQHHYDNHVVDYYYKLRKQPNEKPHKTAIIACINRLLKTIHYLVMNHKLYDYQMSPH | not soluble |
| MKALTYHGPHHVKVENVPDPGIEQPDDIILRVTATAICGSDLHLYRGKIPQVKHGDIFGHEFMGEVVETGHDVKNIRKGDRVVIPFVIACGDCFFCRLQQYSACENTNDGHGAAMNKKQIPPPAALFGYSHLYGGVPGGQAEYVRVPKGNVGPFKVPPLLSDDKALFLSDILPTAWQAAKNAQIQQGFSVAVFGAGPVGLLTIACARLLGAEQIFVVDHHAWRLRFAEERYGAIPINFDDENDPAEKIIEQTAGHRGVDAVIDAVGFEAKGSLTETVLTNLKLEGSSGKALRQCIAAVRRGGVVSVPGVYAGFIHGFLFGDAFDKGLTFKMGQTHVHAWLGELLPLIEKGLLKPEEIVTHYMPFEEAARGYEIFEKREEECRKVILVPGATSAQAAQKQATGVVNPMPGGVV | not soluble |
| MSLTADTSLSSIQEAINVVQQYNATDPVRLKLFHTPRMVSQGAHFAFCLPTKKPHYKPLLLSQNALDEFNLVQDQDLEKILSGEKVYYSDSIFPYSTVYSGFQFGSFAAQLGDGRVVNLFDLKDKCSGQWQTFQLKGAGMTPFSRFADGKAVLRSSIREFIMSEALHSIGIPSTRAMQLTLLPGTKAQRRNQEPCAVVCRFAPSWIRLGNFNLFRWRHDLKGLIQLSDYCIEELFAGGTQFEGKPDFNIFKRDFFPDTETKIDEQVEKDETEVSTMTGDNISTLSKYDEFFRHVVSLNANTVAHWQAYGFANGVLNTDNTSIMGLTIDYGPFAFLDKFEPSFTPNHDDTAKRYSFANQPSIIWWNLQQFAKDLACLLGPEARDLELLLKGELNSVDDALEKTMIERVQKLVELSANEYKYVFTTRYAQIMSQRLGVDLDLEKCMSSTNLKDIEHAAEKAKEFCDVIVEPLLDILQATKVDYNNFFIHLQNYKGPFFIKDKSDTATLFGAFDEEYLGMFFNSKQLQQMAETEEAFAAGEKVFDANGELRLLNEKLQEIRNWTQDYLTLVPPTETAARASLAKKANPLFVPRSWVLEEVVDDLMYSQRDGLQDPSSELDTSALKKLYLMSVNPYDRTKWDVTLRPELETKWADLSHQDDAKFMMQASCSSEGHHHHHH | soluble |
| MIYRFTIISDEVDDFVREIQIDPEATFFDLHEAILKAANYTNDQMTSFFICDDDWEKEKEITLEEMDNNPEMDSWIMKETRLNELIEDEKQKLLYVFDYMTERCFFIELSEIITGKEIKGAKCTKKSGEAPKQTVDFEEMAAGGGSLDLDENFYGDQDFDMEDFDAEGFDVNDGAAGGGSSYDEDKFLEHHHHHH | soluble |
| MTNPGDGAAGAVDCATLDHWRPRLAAIAAAAGQDDAAHDLGHLRRVWGAARAMLQAHPEADALVVLAASYLHDLVNLPKNHPERHLASRQAAAAARERLARAGFPAARLDAVAHAIEAHSFSAGIAPRTIEARIVQDADRLDALGPVGLARMFHVGGSLGRALAHPSDPLAAQRALDDSRYTLDHIEAKLARLPHGMQTEAGRRLGEQRLAWLRDFRAAFAAQWGGGQLRLEHHHHHH | soluble |
| MSLYKLYSMQRSGNSYKVRLALALLDAPYRAVEVDILRGESRTPDFLAKNPSGQVPLLETAPGRYLAESNAILWYLAVGTSLAPDTRMDRAEALQWMFFEQHALEPNIGSAYFWLCLVKGGRDLQTHALEDWLERGYAALQVMENHLKTNDYFAAGQLTIADIALYGYTHVADQCDFDLSTFPAVNAWLRRVEQTPGFITMDWTPETIAADPTSFAAEGHHHHHH | soluble |
